T1: EsCas13d, nuclease-dead (Eubacterium siraeum, UniProt B0MS50, R295A;H300A;R849A;H854A)
T1 sequence: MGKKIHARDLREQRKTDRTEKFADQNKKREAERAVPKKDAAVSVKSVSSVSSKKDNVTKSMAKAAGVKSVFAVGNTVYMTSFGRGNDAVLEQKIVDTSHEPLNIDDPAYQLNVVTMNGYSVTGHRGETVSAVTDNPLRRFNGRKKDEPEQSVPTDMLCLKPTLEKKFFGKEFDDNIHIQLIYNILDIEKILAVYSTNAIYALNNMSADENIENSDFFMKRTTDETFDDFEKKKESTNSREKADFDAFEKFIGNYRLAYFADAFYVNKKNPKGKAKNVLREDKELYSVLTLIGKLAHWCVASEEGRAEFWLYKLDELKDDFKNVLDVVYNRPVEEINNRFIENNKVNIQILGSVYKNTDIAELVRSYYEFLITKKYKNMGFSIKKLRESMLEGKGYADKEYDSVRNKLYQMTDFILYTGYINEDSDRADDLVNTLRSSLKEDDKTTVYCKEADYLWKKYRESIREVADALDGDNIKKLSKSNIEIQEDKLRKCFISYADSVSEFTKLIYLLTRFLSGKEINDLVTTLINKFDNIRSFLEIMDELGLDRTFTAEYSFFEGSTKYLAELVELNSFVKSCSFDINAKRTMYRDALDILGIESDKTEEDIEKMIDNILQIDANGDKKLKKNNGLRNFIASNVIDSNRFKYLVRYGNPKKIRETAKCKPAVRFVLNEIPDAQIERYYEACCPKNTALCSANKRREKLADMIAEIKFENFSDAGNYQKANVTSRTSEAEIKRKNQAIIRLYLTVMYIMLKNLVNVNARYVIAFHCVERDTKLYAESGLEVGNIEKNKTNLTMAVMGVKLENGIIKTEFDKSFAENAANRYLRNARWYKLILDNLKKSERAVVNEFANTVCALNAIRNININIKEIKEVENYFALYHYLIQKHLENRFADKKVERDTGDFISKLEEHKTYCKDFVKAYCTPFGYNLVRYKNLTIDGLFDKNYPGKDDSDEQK


Target: T1, EsCas13d, nuclease-dead
Assay: crRNA (strand 1, pre-loaded); Mg2+; 40 mM Tris-HCl pH 7.5, 150 mM NaCl, 6 mM MgCl2, 1 mM DTT, 0.1% Tween-20, 0.2 mg/ml BSA; 25 C; 10 min per concentration, then washed
Settings: tags: His6-TwinStrep-SUMO cleaved; N-terminal SNAP kept (SNAP-Surface 488); label: 3' end held by stalled T7 RNA polymerase

Binder	Kd
target 3 insU 3' of 14,insG 3' of 5 (mixed) RNA 1: CACCCGUGCAAAAUUGCAGGGGUCUAAAACGACCUGAAUAUUUCAGAUCAAA RNA 2: GGGAAUGGAUCCACAUCUACGAAUUCGUUUUUGAUCUGUAAAUAUUCAGGGUCUGCAGAUCGGAAGAGCACACGU	60.5 ± 19.5 nM
target 3 C6U,U8C (mixed) RNA 1: CACCCGUGCAAAAUUGCAGGGGUCUAAAACGACCUGAAUAUUUCAGAUCAAA RNA 2: GGGAAUGGAUCCACAUCUACGAAUUCGUUUUUGAUCUGAAAUACUUAGGUCUGCAGAUCGGAAGAGCACACGU	33.5 ± 2.95 nM
target 3 insG 3' of 8,insC 3' of 5 (mixed) RNA 1: CACCCGUGCAAAAUUGCAGGGGUCUAAAACGACCUGAAUAUUUCAGAUCAAA RNA 2: GGGAAUGGAUCCACAUCUACGAAUUCGUUUUUGAUCUGAAAUAUGUCACGGUCUGCAGAUCGGAAGAGCACACGU	39 ± 4 nM
target 3 insA 3' of 10,insU 3' of 3 (mixed) RNA 1: CACCCGUGCAAAAUUGCAGGGGUCUAAAACGACCUGAAUAUUUCAGAUCAAA RNA 2: GGGAAUGGAUCCACAUCUACGAAUUCGUUUUUGAUCUGAAAUAAUUCAGGUUCUGCAGAUCGGAAGAGCACACGU	67.5 ± 17.5 nM
target 3 insG 3' of 16,insU 3' of 3 (mixed) RNA 1: CACCCGUGCAAAAUUGCAGGGGUCUAAAACGACCUGAAUAUUUCAGAUCAAA RNA 2: GGGAAUGGAUCCACAUCUACGAAUUCGUUUUUGAUCGUGAAAUAUUCAGGUUCUGCAGAUCGGAAGAGCACACGU	~71 nM
target 3 insA 3' of 8,insG 3' of 6 (mixed) RNA 1: CACCCGUGCAAAAUUGCAGGGGUCUAAAACGACCUGAAUAUUUCAGAUCAAA RNA 2: GGGAAUGGAUCCACAUCUACGAAUUCGUUUUUGAUCUGAAAUAUAUCGAGGUCUGCAGAUCGGAAGAGCACACGU	45.5 ± 4.5 nM
target 3 insG 3' of 22,insA 3' of 2 (mixed) RNA 1: CACCCGUGCAAAAUUGCAGGGGUCUAAAACGACCUGAAUAUUUCAGAUCAAA RNA 2: GGGAAUGGAUCCACAUCUACGAAUUCGUUUGUUGAUCUGAAAUAUUCAGGUACUGCAGAUCGGAAGAGCACACGU	72 ± 21 nM
target 3 insC 3' of 4,insC 3' of 3 (mixed) RNA 1: CACCCGUGCAAAAUUGCAGGGGUCUAAAACGACCUGAAUAUUUCAGAUCAAA RNA 2: GGGAAUGGAUCCACAUCUACGAAUUCGUUUUUGAUCUGAAAUAUUCAGCGCUCUGCAGAUCGGAAGAGCACACGU	22.9 ± 2.65 nM
target 3 C6U,U22A (mixed) RNA 1: CACCCGUGCAAAAUUGCAGGGGUCUAAAACGACCUGAAUAUUUCAGAUCAAA RNA 2: GGGAAUGGAUCCACAUCUACGAAUUCGUUAUUGAUCUGAAAUAUUUAGGUCUGCAGAUCGGAAGAGCACACGU	13.3 ± 1.4 nM
target 3 U2C,U7A (mixed) RNA 1: CACCCGUGCAAAAUUGCAGGGGUCUAAAACGACCUGAAUAUUUCAGAUCAAA RNA 2: GGGAAUGGAUCCACAUCUACGAAUUCGUUUUUGAUCUGAAAUAUACAGGCCUGCAGAUCGGAAGAGCACACGU	77 ± 23 nM
target 1 U8C,A18U (mixed) RNA 1: CACCCGUGCAAAAAUGCAGGGGUCUAAAACUGAGCGGAUAACCUCUCUAUGG RNA 2: GGGAAUGGAUCCACAUCUACGAAUUCGUACCAUUGAGAGGUUACCCGCUCACCGAGAUCGGAAGAGCACACGU	43 ± 4 nM
target 3 U21A (mixed) RNA 1: CACCCGUGCAAAAUUGCAGGGGUCUAAAACGACCUGAAUAUUUCAGAUCAAA RNA 2: GGGAAUGGAUCCACAUCUACGAAUUCGUUUAUGAUCUGAAAUAUUCAGGUCUGCAGAUCGGAAGAGCACACGU	35.5 ± 4 nM
target 3 U2A,G4U (mixed) RNA 1: CACCCGUGCAAAAUUGCAGGGGUCUAAAACGACCUGAAUAUUUCAGAUCAAA RNA 2: GGGAAUGGAUCCACAUCUACGAAUUCGUUUUUGAUCUGAAAUAUUCAUGACUGCAGAUCGGAAGAGCACACGU	1.98 ± 0.2 nM
target 3 G3A,G4U (mixed) RNA 1: CACCCGUGCAAAAUUGCAGGGGUCUAAAACGACCUGAAUAUUUCAGAUCAAA RNA 2: GGGAAUGGAUCCACAUCUACGAAUUCGUUUUUGAUCUGAAAUAUUCAUAUCUGCAGAUCGGAAGAGCACACGU	8.95 ± 0.95 nM
target 3 insC 3' of 20,insA 3' of 6 (mixed) RNA 1: CACCCGUGCAAAAUUGCAGGGGUCUAAAACGACCUGAAUAUUUCAGAUCAAA RNA 2: GGGAAUGGAUCCACAUCUACGAAUUCGUUUUUCGAUCUGAAAUAUUCAAGGUCUGCAGAUCGGAAGAGCACACGU	105 ± 43.5 nM
target 3 C6U,U8G (mixed) RNA 1: CACCCGUGCAAAAUUGCAGGGGUCUAAAACGACCUGAAUAUUUCAGAUCAAA RNA 2: GGGAAUGGAUCCACAUCUACGAAUUCGUUUUUGAUCUGAAAUAGUUAGGUCUGCAGAUCGGAAGAGCACACGU	44.1 ± 3.35 nM
target 3 U2G,U10G (mixed) RNA 1: CACCCGUGCAAAAUUGCAGGGGUCUAAAACGACCUGAAUAUUUCAGAUCAAA RNA 2: GGGAAUGGAUCCACAUCUACGAAUUCGUUUUUGAUCUGAAAGAUUCAGGGCUGCAGAUCGGAAGAGCACACGU	~105 nM
target 3 insC 3' of 7 (mixed) RNA 1: CACCCGUGCAAAAUUGCAGGGGUCUAAAACGACCUGAAUAUUUCAGAUCAAA RNA 2: GGGAAUGGAUCCACAUCUACGAAUUCGUUUUUGAUCUGAAAUAUUCCAGGUCUGCAGAUCGGAAGAGCACACGU	90.5 ± 20.5 nM
target 3 G3A,U22A (mixed) RNA 1: CACCCGUGCAAAAUUGCAGGGGUCUAAAACGACCUGAAUAUUUCAGAUCAAA RNA 2: GGGAAUGGAUCCACAUCUACGAAUUCGUUAUUGAUCUGAAAUAUUCAGAUCUGCAGAUCGGAAGAGCACACGU	47 ± 10.5 nM
target 3 G3A,G4A (mixed) RNA 1: CACCCGUGCAAAAUUGCAGGGGUCUAAAACGACCUGAAUAUUUCAGAUCAAA RNA 2: GGGAAUGGAUCCACAUCUACGAAUUCGUUUUUGAUCUGAAAUAUUCAAAUCUGCAGAUCGGAAGAGCACACGU	8.7 ± 0.75 nM
target 3 G4A,C6U (mixed) RNA 1: CACCCGUGCAAAAUUGCAGGGGUCUAAAACGACCUGAAUAUUUCAGAUCAAA RNA 2: GGGAAUGGAUCCACAUCUACGAAUUCGUUUUUGAUCUGAAAUAUUUAAGUCUGCAGAUCGGAAGAGCACACGU	15.7 ± 1.25 nM
target 1 C2A,A14G (mixed) RNA 1: CACCCGUGCAAAAAUGCAGGGGUCUAAAACUGAGCGGAUAACCUCUCUAUGG RNA 2: GGGAAUGGAUCCACAUCUACGAAUUCGUACCAUAGAGGGGUUAUCCGCUAACCGAGAUCGGAAGAGCACACGU	13.5 ± 0.5 nM
target 3 insA 3' of 19 (mixed) RNA 1: CACCCGUGCAAAAUUGCAGGGGUCUAAAACGACCUGAAUAUUUCAGAUCAAA RNA 2: GGGAAUGGAUCCACAUCUACGAAUUCGUUUUUGAAUCUGAAAUAUUCAGGUCUGCAGAUCGGAAGAGCACACGU	83 ± 21.5 nM
target 3 insG 3' of 9,insU 3' of 3 (mixed) RNA 1: CACCCGUGCAAAAUUGCAGGGGUCUAAAACGACCUGAAUAUUUCAGAUCAAA RNA 2: GGGAAUGGAUCCACAUCUACGAAUUCGUUUUUGAUCUGAAAUAGUUCAGGUUCUGCAGAUCGGAAGAGCACACGU	43.5 ± 7 nM
target 3 insG 3' of 8,insC 3' of 7 (mixed) RNA 1: CACCCGUGCAAAAUUGCAGGGGUCUAAAACGACCUGAAUAUUUCAGAUCAAA RNA 2: GGGAAUGGAUCCACAUCUACGAAUUCGUUUUUGAUCUGAAAUAUGUCCAGGUCUGCAGAUCGGAAGAGCACACGU	57 ± 9 nM
target 3 insA 3' of 22,insU 3' of 16 (mixed) RNA 1: CACCCGUGCAAAAUUGCAGGGGUCUAAAACGACCUGAAUAUUUCAGAUCAAA RNA 2: GGGAAUGGAUCCACAUCUACGAAUUCGUUUAUUGAUCUUGAAAUAUUCAGGUCUGCAGAUCGGAAGAGCACACGU	71 ± 14 nM
target 3 insG 3' of 5,insG 3' of 2 (mixed) RNA 1: CACCCGUGCAAAAUUGCAGGGGUCUAAAACGACCUGAAUAUUUCAGAUCAAA RNA 2: GGGAAUGGAUCCACAUCUACGAAUUCGUUUUUGAUCUGAAAUAUUCAGGGUGCUGCAGAUCGGAAGAGCACACGU	26.6 ± 4.1 nM
target 3 insC 3' of 8,insG 3' of 5 (mixed) RNA 1: CACCCGUGCAAAAUUGCAGGGGUCUAAAACGACCUGAAUAUUUCAGAUCAAA RNA 2: GGGAAUGGAUCCACAUCUACGAAUUCGUUUUUGAUCUGAAAUAUCUCAGGGUCUGCAGAUCGGAAGAGCACACGU	120 ± 50 nM
